Experimental findings from paper PMC3391165 are described below.

The target in the experiment is zebrafish ΔP2X4-B (zebrafish) (UniProt F8W463). Kind of experiment: crystal structure.

Take “zebrafish ΔP2X4-B (from UniProt F8W463 1-389) (receptor)”: the stoichiometry N (as a rule, the number of molecules, sites or subunits per partner or assembly) is 3.
